What was measured:
[1] = target: T1, NPNA8 peptide, biotinylated (Plasmodium falciparum, biotin (position not given)); experiment: BLI; 2:1 binding model
T1 chain: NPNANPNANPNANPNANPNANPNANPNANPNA

[2] = target: T1, NPNA8 peptide, biotinylated; experiment: BLI; 2:1 binding model

B1: L9 Fab (Fab, V domains shown)
VH: QVKLVESGGGVVQPGRSLRLSCEASGFIFSTYGMHWVRQAPGKGLEWVAVIWFDGSNIYYADSVKGRFTISRDNSKNTVFMQMDSLRAEDTAVYYCHRNFYDGSGPFDYWGQGTLVTVSS
VL: DIQMTQSPSTLSASVGDRVTITCRASQFISRWLAWYQQKPGKAPKLLIYKASSLESGVPSRFSGSGSETHFTLTISSLQPDDVATYYCQEYTSYGRTFGQGTKVEIK
B1 was tested, and the Kd [1] was 6.26 µM and the koff [2] was 0.024 s⁻¹.

Reference: PMC10192352 (2023)
